# In a protein production outcome set (Wang et al. 2014):
# Assay: label from the status in PepcDB records
row,Sequence,protein production
1,MGKKYSMRRRIWQAVIEIIIGTCLLILLLLGLTFFLRQIGQISGSETIRLSLDSDNLTISDIERDMKHYPYDYIIFDNDTSKILGGHYVKSDVPSFVASKQSSHNITEGEITYTYSSNKHFSVVLRQNSMPEFTNHTLRSISYNQFTYLFFFLGEIILIIFSVYHLIREFSKNFQAVQKIALKMGEITTFPEQEESKIIEFDQVLNNLYSKSKELAFLIEAERHEKHDLSFQVAALSHDVKTPLTVLKGNIELLEMTEVNEQQADFIESMKNSLTVFDKYFNTMISYTKLLNDENDYKATISLEDFLIDLSVELEELSTTYQVDYQLVKKTDLTTFYGNTLALSRALINIFVNACQYAKEGEKIVSLSIYDDEKYLYFEIWNNGHPFSEQAKKNAGKLFFTEDTGRSGKHYGIGLSFAQGVALKHQGNLILSNPQKGGAEVILKIKK,failed
2,MGKTPEEVDEVNKAAFSTSEASATIAAMNQLHKPVDTVVAHISPEAPAAKVMAEGDVITQVAGAKATGPSQVRDAVRAKKPGETISIGFLRDGKQLTREVTLGTHPEDDKVAFLGVSMTARPLEHHHHHH,not failed
3,MGKVQPVYWRQLRDIEMENNFLLDVRTPDEFSLNTLPGAVNIPLDELRDRLDELPKDKMIYTFCAVGLRGYLAYRILVQHGFEKVRNLSGGLKTYHAAAAPIILREESENEVPLEHHHHHH,not failed
4,MGLFDEVVGAFLKGDAGKYQAILSWVEEQGGIQVLLEKLQSGGLGAILSTWLSNQQRNQSVSGEQLESALGTNAVSDLGQKLGVDTSTASSLLAEQLPKIIDALSPQGEVSAQANNDLLSAGMELLKGKLFR,not failed
5,MGLFSKRQIGNQYETLAKQYLQRQGLRFLDQNYLTKFGEIDLIFQQDETIVFVEVKYRKNDHFGSAAEMVTNAKMRKLIKTAQVWLSQQRTMNTIDYRFDVIAIHDSGRDINWIQNAISEG,failed
6,MGLGRYLPYLLSAALLLLCGCERTDTHAQPAKENGEIKVAPYGSWQSPLSAADVFKQTDDIAELQSVGNAIYFAESSGRDQGKVGIKRLDGLGKVTQVVLPDFNVKSTVHEYGGAAFLGIGKSLFATKMQDQLFYRFAPNQPPLPLTPNGTRHADCVAYPKGSRIICVREDHRQGGEPKASLVTINLNFAGEGDTFVSGHDFISSPTISPDNTQLAWITWEHPYMPWDNSVLWLGELDRKGQLKNVRKVSTPEASSVAQPLFGPDGKLYVVSDISNWWNIYRVTPSYTLEPVLSKNAEFAVPDWRLGNHNYAFENATTLIASYVEGNRAALLRIHLDSELTESLAIDFAEITQVVKGEDGVYFVGAKATPEKGIYRVVGRGTELVYAPALANLNPNYVSRAINIAFATGKDQQAYGYFYGPVNPKYVPPHDTRPPLIVMLHGGPTSRASLAYRSEIQFWTSRGFAVLDLNFRGSSGFGRAYRQSLYGKWGESDVEDAVNAAKYLVAKGWVDANKLAIRGISAGGLTVMSSLAFYNVFQAGVSYEGISDVEQLAKSTHKFESGYLDQLIGPYPENTDRYRELSPLNHLDGLNEPLLIFQSLRNKIVPTSQSRQIYDALKAKGVPTAYIDYGDDSDEGRTPEHKAAGLETELAFYGQVFKFTPAGKLPPLILDNISALTP,failed
7,MGLGSSNRQTDDWNAKLYDERHRFVSAYGEDLIQWLAPKEGECVLDLGCGTGDLTEQIHQLGSRVIGVDVSESMIEQAKGKFPHLDFQVAEATDLSFSEKFDAIFSNAVLHWIKDAEEALTVIYRSLKPGGRFVAEFGGKGNVETIVNTLADTMSQADSRWSKEELPWFFPSIGQYTSLMEQVGFRVTHALHFNRPTLLEDGDGIRHWLAMFAESVLEGKSETERAEIVRFVEAEVKDALFDGTNWWADYKRIRVVGMKQL,failed
8,MGLKGFAEGGIASIVAGCSTHPLDLIKVRMQLQGESAPIQTNLRPALAFQTSTTVNAPPLRVGVIGVGSRLIREEGMRALFSGVSATVLRQTLYSTTRMGLYDIIKGEWTDPETKTMPLMKKIGAGAIAGAIGAAVGNPADVAMVRMQADGRLPLTDRRNYKSVLDAITQMIRGEGVTSLWRGSSLTINRAMLVTSSQLASYDSVKETILEKGLLKDGLGTHVSASFAAGFVASVASNPVDVIKTRVMNMKVVAGVAPPYKGAVDCALKTVKAEGIMSLYKGFIPTVSRQAPFTVVLFVTLEQVKKLFKDYDF,failed
9,MGLLVVKAQRQLRKIDNSKVFQGVVIAVILLSALLIGAKTHNLSSNVVAILLLMDVAVTVFFAIEISIRYLACPQKKNFFKSGWNIFDTVIVIGSLVPSGGSGVLLARLLRVFRVLRLVSMVPELRLLINALLKAIPRMGYIALLMFVIFYIYAAIGSMYFHSINEVLWGDVSISMLTLFRVATFEDWTDVMYETMAVHPLSWIYYLTFIFLTAFIFLNMMVGTVLEVMSQEHEQFRAEQHGESGDGGEPASRAQIDKLESEIAEIKALLLAKT,failed
10,MGLVIYDTLARRKVPFEPAVPGHVGIYVCGPTVYADPHLGHARGPVVYDVLRRYLLHKGYKVRFVSNITDVGHLTDDADEGEDKIVRRAKLERLEPMEVAEKYTWSYFDAMQALNVLRPSIAPRASGHIPEMLELTERLLARGVAYERKGSVYFRVRSFPEYGKLSGKRLEELRAGARVEVREEKEDPLDFALWKAAEPGHIMRWKSPWGEGYPGWHIECTAMSLKYLGEGFDLHAGGIDLQFPHHECEIAQAEAAGFRFARHWMHHNHVLLEGEKMAKSTGNLVLLHDLLEAHEPMALRFYLLQTHYRSPMDFTWEGLESAKRGYGRLLHAYREVRGRKKTAPPGTTPELERALDALEKAFMEAIEDDLSTPEALAALFAFLPELHKLLPEAKAESLARAEAVFHTLGEGILGLFPERVLEERVSGPLLEGLIALLLELREEARRAKDYEKSDLIRERLRALGVIVEDTKEGPRWRLER,not failed
11,MGLWAAVHAERRGIATIIADAGRLGGGASGGLLGALMPHMPDRWSEKKQFQFDALVSLEAEIAALEAATGLSAGYNRSGRLIPLPKPHLNRIARGHSEDAERHWQAGERRFHWHVVDRPDADGWVDASAGASGFVHDTLAARVAPRSLMSALIASLRQAKFVRILEYAAVAGLDPDRGTADIGGETIAFSRCILAAGHQSFPLLQELTLGPKKPLGQPVKGQATLLKAAIDPALPTIFLDGLYIVAHEGGHVAIGSTSENRFNDPFSTDAQLDALIETARAIVPILRDAPVVERWAGLRPKAIDRDPMIGCHPDHPRLIALTGGFKVSFGLAHRLAEAAVCIADDIDCEYLLPESFAISSHIAAASR,failed
12,MGMAASFARASSVIMPAPPRRYFSRQRFHNFRRLAIIGSKATRSGDTAAMTDGKHLDALTAAYAAKRPEEVAALYDRWSRTYDADMSAAGYRHPTICLALLTRHLPRGAAPLLDAGAGTGLIGEWLDISGYPEVEALDISQGMLDQAARKGVYSALHCLALGGALPFADDAYAGIVSAGVFTSGHVGVEGLNELIRICRPGGVIVLTVKNTLWEQGFAARIAELEAQGVVTRAEETRPYVSMPGEADTVPSRGLALRVN,failed
13,MGMGSNGELKYEISQNAYIKLVLHSLRHKTAAVNGVLVGRISPKDDGVVEISDSVPLFHSNLALLPPLEISLIMIEEHYVAQGLSIVGYFHANERFDDVELCGVAKNIGDHISRYFPQAPILLLNNKKLEALSKGKERSPVMQLCVKDASKNWRVVGADGGSKLLLKEPSANVVLSDYISSEKWKDVTDVDDHLDDVTKDWLNPGLFN,failed
14,MGMHGAAHIVWDWNGTLFHDNAAIIGATNAAFAELGLEPITLERYRALYCVPVPKFYERLIGRLPTDAEWEIMDEIFHRYYAEHRVGCGLTEGAAELLVEWQSAGHSQSILSMYVHDELVPLVRGFGIEPHFIRVDGRTGPSGGSKAEHMVRHIGALAGVAGVDPARTVVIGDAADDAVAALHVGAQAVLYTGGSHSRASLEGVGVPVVDTLAEAVEEAGRLAA,failed
15,MGMIGYFAEIDSEKINQLLESTEKPLMDNIHDTLSGLRRLDIDKRWDFLHFGLTGTSAFDPAKNDPLSRAVLGEHSLEDGIDGFLGLTWNQELAATIDRLESLDRNELRKQFSIKRLNEMEIYPGVTFSEELEGQLFASIMLDMEKLISAYRRMLRQGNHALTVIVG,not failed
16,MGMMSSLRRLGKRRPVLGILFVVVLSIGLVGSYAIFSTPKAPVAPSESQAQAPDANQQAEAMQKAAQEQISKLETDIANLQKDLQAKPGDIATAVKLGDSQYNLGTLYLFVNGDQEKATQTFKAAVATYQQVLKLNPAEKGINLRLAGAALYAGDSKLAEDNFQAAIKADPNDNNARMTYGMYLASMKGDYQGAIDQWQEILKHNPDKDLATQVQEMIKQAETAKQDANKSAANQPPANQPQANGGQGSGK,failed
17,MGNAGESKKSNSDSAKGEEKASGSLTISGSSAMQPLVLAAAEKFMEENPDADIQVQAGGSGTGLSQVSEGAVQIGNSDVFAEEKEGIDAKALVDHQVAVVGMAAAVNPDAGVKDISKDELKKIFTGKIKNWKELGGKDQKITLVNRPDSSGTRATFVKYALDGAEPAEGITEDSSNTVKKIIADTPGAIGYLAFSYLTDDKVTALSIDGVKPEAKNVATGEYPIWAYQHSYTKGEATGLAKEFLDYLKSEDIQKSIVTDQGYIPVTDMKVTRDANGKQSLEHHHHHH,failed
18,MGNCCGTAGSLAQNDNKPKKGRKKQNPFSIDYGLHHGGGDGGGRPLKLIVLNDPTGREIESKYTLGRELGRGEFGVTYLCTDKETDDVFACKSILKKKLRTAVDIEDVRREVEIMRHMPEHPNVVTLKETYEDEHAVHLVMELCEGGELFDRIVARGHYTERAAAAVTKTIMEVVQVCHKHGVMHRDLKPENFLFGNKKETAPLKAIDFGLSVFFKPGERFNEIVGSPYYMAPEVLKRNYGPEVDIWSAGVILYILLCGVPPFWAETEQGVAQAIIRSVLDFRRDPWPKVSENAKDLIRKMLDPDQKRRLTAQQVLDHPWLQNAKTAPNVSLGETVRARLKQFTVMNKLKKRALRVIAEHLSDEEASGIREGFQIMDTSQRGKINIDELKIGLQKLGHAIPQDDLQILMDAGDIDRDGYLDCDEFIAISVHLRKMGNDEHLKKAFAFFDQNNNGYIEIEELREALSDELGTSEEVVDAIIRDVDTDKDGRISYEEFVTMMKTGTDWRKASRQYSRERFNSISLKLMQDASLQSCVFDILANERAEYGDQERKTVLAFGCV,failed
19,MGNIIRALVAFIPTDRCQSYVVGDLREMPLDRMVDLSGSQLRRFPLHVCSFTELVKLYLSDNHLHSLPPDLAQLQNLQILALDFNNFKALPQAVCTLKQLCILYLGNNKLCDLPDELSLLQNLRTLWLESNCLTRLPDVVCELSLLKTLHAGSNALRLLPGQLRRLRELRTIWLSGNQLADFPSVLLHMPFLEVIDVDRNSIRYFPSLAHLTNLKLVIYDHNPCRNAPKVGKGVRRVGRWAEETPEPDRRKTRRSALAKEENQEPPPLLPPSS,failed
20,MGNILKDKSMAFAIQIVNLHKYPNKRKAYSLSDQILISGTAIGVLQKETECAESNADFIHNIASPQKNVTKPFSGLNCYLKQNIYPKQNIQACLQTQMNLEHHHHHH,failed
21,MGNIYQITVEEKAEHQRTLSFEFSLHDDLFKLLEKVDGKMDMTPEQTQAFMVGLKLFGEVMMQQRKHPLFKEFSAPFRAFMMNLKKQ,not failed
22,MGNLSKPVGIGAGGLDLLMPMHLRLDPLGEIAGCGPTLRKLFAESPVRRPFFDLFKVRRPTGIETPAALAARTGVRLHLTTLDGGVSLRGVATPKHEGRGLLLNLSFGISVIEAVRRHGLTDGDFAPTDLAVELLYLVEAKTAVAEELRRLNGRLERARRLAEEEALTDELTGLRNRRAIDQALEAVIATRRPFGLMHLDLDFFKEVNDSFGHAAGDEVLRAVAQVLSRETRTGDTVARIGGDEFMMLFPGLSDPAPMKRLAARVIADVARPIPFGGGVCRVSASIGMTLSVRYDRPDLARMLADADEALYAAKRAGRGTAVLSEGMRPERRRDP,failed
